Measurements: patent US20250332230A1

Assays:
[1] = target: Human Alkaline Phosphatase/ALPI Protein (His Tag) (Sino Biological Cat. No. 13225-H08H) (human) (UniProt P09923); test: sandwich ECL (MSD), capture AbD54140ad; ST08, HIAP nominal 2.000 ng/mL
[2] = target: Human Alkaline Phosphatase/ALPI Protein (His Tag) (Sino Biological Cat. No. 13225-H08H) (human) (UniProt P09923); test: sandwich ECL (MSD), capture AbD54140ad; ST04, HIAP nominal 32.00 ng/mL
[3] = target: Human Alkaline Phosphatase/ALPI Protein (His Tag) (Sino Biological Cat. No. 13225-H08H) (human) (UniProt P09923); test: sandwich ECL (MSD), capture AbD54140ad; ST06, HIAP nominal 8.000 ng/mL
[4] = target: Human Alkaline Phosphatase/ALPI Protein (His Tag) (Sino Biological Cat. No. 13225-H08H) (human) (UniProt P09923); test: sandwich ECL (MSD), capture AbD54140ad; ST07, HIAP nominal 4.000 ng/mL
[5] = target: Human Alkaline Phosphatase/ALPI Protein (His Tag) (Sino Biological Cat. No. 13225-H08H) (human) (UniProt P09923); test: sandwich ECL (MSD), capture AbD54140ad; LLOQ02, HIAP nominal 0.5000 ng/mL
[6] = target: Human Alkaline Phosphatase/ALPI Protein (His Tag) (Sino Biological Cat. No. 13225-H08H) (human) (UniProt P09923); test: sandwich ECL (MSD), capture AbD54140ad; LC01, HIAP nominal 1.500 ng/mL
[7] = target: Human Alkaline Phosphatase/ALPI Protein (His Tag) (Sino Biological Cat. No. 13225-H08H) (human) (UniProt P09923); test: sandwich ECL (MSD), capture AbD54140ad; MC02, HIAP nominal 12.00 ng/mL
[8] = target: Human Alkaline Phosphatase/ALPI Protein (His Tag) (Sino Biological Cat. No. 13225-H08H) (human) (UniProt P09923); test: sandwich ECL (MSD), capture AbD54140ad; HC02, HIAP nominal 192.0 ng/mL
[9] = target: Human Alkaline Phosphatase/ALPI Protein (His Tag) (Sino Biological Cat. No. 13225-H08H) (human) (UniProt P09923); test: sandwich ECL (MSD), capture AbD54140ad; ST09, HIAP nominal 1.000 ng/mL
[10] = target: Human Alkaline Phosphatase/ALPI Protein (His Tag) (Sino Biological Cat. No. 13225-H08H) (human) (UniProt P09923); test: sandwich ECL (MSD), capture AbD54140ad; ULOQ01, HIAP nominal 256.0 ng/mL
[11] = target: Human Alkaline Phosphatase/ALPI Protein (His Tag) (Sino Biological Cat. No. 13225-H08H) (human) (UniProt P09923); test: sandwich ECL (MSD), capture AbD54140ad; ST05, HIAP nominal 16.00 ng/mL
[12] = target: Human Alkaline Phosphatase/ALPI Protein (His Tag) (Sino Biological Cat. No. 13225-H08H) (human) (UniProt P09923); test: sandwich ECL (MSD), capture AbD54140ad; ST02, HIAP nominal 128.0 ng/mL
[13] = target: Human Alkaline Phosphatase/ALPI Protein (His Tag) (Sino Biological Cat. No. 13225-H08H) (human) (UniProt P09923); test: sandwich ECL (MSD), capture AbD54140ad; ST10, HIAP nominal 0.5000 ng/mL
[14] = target: Human Alkaline Phosphatase/ALPI Protein (His Tag) (Sino Biological Cat. No. 13225-H08H) (human) (UniProt P09923); test: sandwich ECL (MSD), capture AbD54140ad; ST01, HIAP nominal 256.0 ng/mL
[15] = target: Human Alkaline Phosphatase/ALPI Protein (His Tag) (Sino Biological Cat. No. 13225-H08H) (human) (UniProt P09923); test: sandwich ECL (MSD), capture AbD54140ad; ULOQ02, HIAP nominal 256.0 ng/mL
[16] = target: Human Alkaline Phosphatase/ALPI Protein (His Tag) (Sino Biological Cat. No. 13225-H08H) (human) (UniProt P09923); test: sandwich ECL (MSD), capture AbD54140ad; LLOQ01, HIAP nominal 0.5000 ng/mL
[17] = target: Human Alkaline Phosphatase/ALPI Protein (His Tag) (Sino Biological Cat. No. 13225-H08H) (human) (UniProt P09923); test: sandwich ECL (MSD), capture AbD54140ad; ST03, HIAP nominal 64.00 ng/mL
[18] = target: Human Alkaline Phosphatase/ALPI Protein (His Tag) (Sino Biological Cat. No. 13225-H08H) (human) (UniProt P09923); test: sandwich ECL (MSD), capture AbD54140ad; MC01, HIAP nominal 12.00 ng/mL
[19] = target: Human Alkaline Phosphatase/ALPI Protein (His Tag) (Sino Biological Cat. No. 13225-H08H) (human) (UniProt P09923); test: sandwich ECL (MSD), capture AbD54140ad; LC02, HIAP nominal 1.500 ng/mL
[20] = target: Human Alkaline Phosphatase/ALPI Protein (His Tag) (Sino Biological Cat. No. 13225-H08H) (human) (UniProt P09923); test: sandwich ECL (MSD), capture AbD54140ad; HC01, HIAP nominal 192.0 ng/mL

Sequence of UniProt P09923 (P09923 20-503 limits assumed): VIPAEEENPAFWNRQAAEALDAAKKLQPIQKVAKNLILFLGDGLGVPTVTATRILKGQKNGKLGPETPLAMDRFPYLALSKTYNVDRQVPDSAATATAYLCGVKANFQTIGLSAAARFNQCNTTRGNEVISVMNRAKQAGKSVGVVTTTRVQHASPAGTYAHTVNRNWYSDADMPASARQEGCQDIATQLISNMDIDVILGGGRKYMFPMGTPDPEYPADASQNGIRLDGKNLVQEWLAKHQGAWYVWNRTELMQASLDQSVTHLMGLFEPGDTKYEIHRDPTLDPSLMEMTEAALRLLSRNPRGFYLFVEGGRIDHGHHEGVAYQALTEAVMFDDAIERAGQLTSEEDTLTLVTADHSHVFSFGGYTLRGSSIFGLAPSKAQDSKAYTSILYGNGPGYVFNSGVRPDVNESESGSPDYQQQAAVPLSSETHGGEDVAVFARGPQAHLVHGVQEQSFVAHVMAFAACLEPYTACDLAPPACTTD

Instrument Response [1]: 13000
Instrument Response [2]: 186000
Instrument Response [3]: 54400
Instrument Response [4]: 27300
Instrument Response [5]: 3260
Instrument Response [7]: 68900
Instrument Response [8]: 456000
Instrument Response [9]: 7040
Instrument Response [10]: 508000
Instrument Response [11]: 101000
Instrument Response [12]: 416000
Instrument Response [13]: 3760
Instrument Response [14]: 504000
Instrument Response [15]: 528000
Instrument Response [16]: 3360
Instrument Response [17]: 301000
Instrument Response [18]: 64000
Instrument Response [19]: 9430
Instrument Response [20]: 444000
Substance: sulfo-tagged anti-HIAP monoclonal antibody AbD54130ad from BioRad
Instrument Response [6]: 9110
